Key:
CFP-Kv2.1 (rat) = CFP-Kv2.1 (rat) (UniProt P15387); assay: FRET or BRET
GFP-Kv2.1-K470Q (rat) = assay: TIRF single-particle photobleaching step counting
[1] = target: Gln-Lys-Lys-Gln tetrameric Kv2.1 construct (rat); assay: TIRF single-particle photobleaching step counting
[2] = target: Gln-Lys-Gln-Gln tetrameric Kv2.1 construct (rat); assay: TIRF single-particle photobleaching step counting
[3] = target: Lys-Gln-Gln-Gln tetrameric Kv2.1 construct (rat); assay: TIRF single-particle photobleaching step counting
CFP-Kv2.1-K470Q (rat) = assay: FRET or BRET

YFP-Ubc9 (from UniProt P63279 1-158) (enzyme)
CFP donor photobleaching decay time constant (tau) (CFP-Kv2.1 (rat)): 23.2 s

GFP-Kv2.1-K470Q (natural protein)
stoichiometry N (GFP-Kv2.1-K470Q (rat)): 4

GFP-SUMO1_(101) (from UniProt P63165 1-101) (natural protein)
stoichiometry N [1]: 1 | stoichiometry N [2]: 1 | stoichiometry N [3]: 1

YFP-Kv2.1-K470Q (natural protein)
CFP donor photobleaching decay time constant (tau) (CFP-Kv2.1-K470Q (rat)): 26.2 s
